As usually defined, the Kd is the concentration at which binding is half-saturated. As a reminder, the koff is the first-order rate constant of dissociation. Lower therefore signals slow dissociation. By kon is commonly meant the second-order rate constant of association. Low values mean slow association, high ones fast association.

Experiment [1] concerns the target T1, human IL-13 variant (R130Q) (human, UniProt P35225 35-146). The experiment in a line: cell-based or functional assay.
Experiment [2] addresses T2, human IL-13 wild type (human, UniProt P35225 35-146). Kind of experiment: cell-based or functional assay.
The target in experiment [3] is T2, human IL-13 wild type. Kind of experiment: SPR (Biacore). On the procedure: (§1) The BIACORE assay (Biacore, Inc, Piscataway, N.J.) determines the affinity of antibodies with kinetic measurements of on-, off-rate constants. […] All chemicals were obtained from Biacore® AB (Uppsala, Sweden) or otherwise from a different source as described in the text. Approximately 5000 RU of goat anti-mouse IgG, (Fcγ), fragment specific polyclonal antibody (Pierce Biotechnology Inc, Rockford, Ill.) diluted in 10 mM sodium acetate (pH 4.5) was directly immobilized across a CM5 research grade biosensor chip using a standard amine coupling kit according to manufacturer's instructions and procedures at 25 μg/ml. Unreacted moieties on the biosensor surface were blocked with ethanolamine. Modified carboxymethyl dextran surface in flowcell 2 and 4 was used as a reaction surface. Unmodified carboxymethyl dextran without goat anti-mouse IgG in flow cell 1 and 3 was used as the reference surface. For kinetic analysis, rate equations derived from the 1:1 Langmuir binding model were fitted simultaneously to association and dissociation phases of all eight injections (using global fit analysis) with the use of Biaevaluation 4.0.1 software. Purified antibodies were diluted in HEPES-buffered saline for capture across goat anti-mouse IgG specific reaction surfaces. Mouse antibodies to be captured as a ligand (25 μg/ml) were injected over reaction matrices at a flow rate of 5 μl/min. The association and dissociation rate constants, kₒₙ (unit M⁻¹s⁻¹) and koff (unit s⁻¹) were determined under a continuous flow rate of 25 μl/min Rate constants were derived by making kinetic binding measurements at ten different antigen concentrations ranging from 10-200 nM. […] Binding is recorded as a function of time and kinetic rate constants are calculated.
On the technique in general: In SPR one partner is held on a chip, and binding of the other changes the refractive index at the surface.

A further experiment addresses T3, mouse IL-13 (mouse, UniProt P20109 26-131, limits assumed).
T3 construct: also called mIL-13; murine IL-13
T3 sequence (looked up): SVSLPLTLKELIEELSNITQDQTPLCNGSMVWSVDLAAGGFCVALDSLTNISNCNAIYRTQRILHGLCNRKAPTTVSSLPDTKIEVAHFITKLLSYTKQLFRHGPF
Kind of experiment: indirect ELISA, captured mAb, biotinylated mouse IL-13. How it is done:
Murine anti-human IL-13 mAbs were prepared at various concentrations ranging from 0.1 to 100 ng/ml in PBS containing 0.1% BSA; 50 ul of each antibody dilution was added to the coated ELISA plate and incubated for 1 hour at room temperature. Wells were washed 3 times with PBS containing 0.05% Tween-20. […] Wells were washed 3 times with PBS containing 0.05% Tween-20. Streptavidin HRP (Pierce #21126, Rockland, Ill.) was diluted 1:20000 in PBS containing 0.1% BSA; […] was added and the plates incubated for 1 hour at room temperature. Plates were washed 3 times with PBS containing 0.05% Tween-20. Fifty microliters of TMB solution (Sigma # T0440, St. Louis, Mo.) was added to each well and incubated for 10 minutes at room temperature. The reaction was stopped by addition of 1N sulphuric acid. Plates were read spectrophotmetrically at a wavelength of 450 nm.
A general note: ELISA stands for enzyme-linked immunosorbent assay.

For experiment [4], the target named is T1, human IL-13 variant (R130Q). Kind of experiment: cell-based or functional assay. The source holds these as a separate data set.
Experiment [5] concerns the target T2, human IL-13 wild type. The experiment in a line: cell-based or functional assay. The source holds these as a separate data set.
The target in the next experiment is cynomolgus IL-13 (cynomolgus, UniProt Q0PW92 21-132). The experiment in a line: cell-based or functional assay.
Chain of cynomolgus IL-13 (Q0PW92 entry or part of it): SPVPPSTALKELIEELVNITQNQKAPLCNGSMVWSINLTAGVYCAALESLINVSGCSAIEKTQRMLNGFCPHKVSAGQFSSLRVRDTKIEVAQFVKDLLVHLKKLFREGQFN
Experiment [6] concerns the target T1, human IL-13 variant (R130Q). The experiment in a line: SPR (Biacore), mAb captured, IL-13 as analyte. How it is done:
as §1

In experiment [7] the target is T2, human IL-13 wild type. The experiment in a line: SPR (Biacore), mAb captured, IL-13 as analyte. How it is done:
as §1

T2 sequence (P35225 other isoform, or with tags, fused parts or gaps limits assumed): as the sequence (Q0PW92 entry or part of it) above, with S1G, K10R, V42M, N67S, R83H, V100L, Q110R counted along it
T1 sequence (P35225 35-146 limits assumed, stated change not applied): as the sequence (Q0PW92 entry or part of it) above, with S1G, K10R, V42M, N67S, R83H, V100L counted along it

B1: 13C5.1 (antibody, human IgG1, V domains shown)
VH: EVTLKESGPVLVKPTETLTLTCTFSGFSLSTSDMGVDWIRQPPGKALEWLAHIWWDDVKRYNPALKSRLTISKDTSKSQVVLTMTNMDPVDTATYYCARTVSSGYIYYAMDYWGQGTTVTVSS
VL: DIQMTQSPSSLSASVGDRVTITCRASQDIRNYLNWYQRKPGKVVKLLIYYTSKLHSGVPSRFSGSGSGTDFTLTISSLQPEDVATYYCQQGNTLPLTFGGGTKVEIKR
notes: Humanized
B1: the “Potency (IC50), A-549 bioassay” value in experiment [1] was 0.369 nM. In the experiment with human IL-13 wild type [2], the “Potency (IC50), A-549 bioassay” value turned out to be 0.868 nM. In the experiment with human IL-13 wild type [3], this molecule yielded a Kd of 0.71 nM, a koff of 0.000474 s⁻¹ and an on-rate (kon) of 668000 M⁻¹ s⁻¹.

B2: 13C5.2 (antibody, human IgG1, V domains shown)
VH: EVTLKESGPVLVKPTETLTLTCTFSGFSLSTSDMGVDWIRQPPGKALEWLAHIWWDDVKRYNPALKSRLTISKDTSKSQVVLTMTNMDPVDTATYYCARTVSSGYIYYAMDYWGQGTTVTVSS
VL: DIQMTQTPSSLSASVGDRVTISCRASQDIRNYLNWYQRKPGKVVKLLIFYTSKLHSGVPSRFSGSGSGTDYTLTISSLQPEDVATYFCQQGNTLPLTFGGGTKVEIKR
notes: Humanized
B2: the “Potency (IC50), A-549 bioassay” value in experiment [1] is 0.13 nM. Further, the “Potency (IC50), A-549 bioassay” value with human IL-13 wild type [2] came to 0.193 nM. Moreover, in the experiment with human IL-13 wild type [3], the Kd was determined as 0.0979 nM, the koff turned out to be 0.000123 s⁻¹ and the kon came to 1.26e+06 M⁻¹ s⁻¹.

B3: 21D9 (antibody, V domains shown)
VH: QVQLQQSGDDLVKPGASVKLSCKASGYTFTSYWINWIKQRPGQGLEWIGHIAPGSGETYDNEMFKDKAKLTVDTSSNTAYIHLSSLSSEDSAVYFCARGSFTFFYAMDYWGQGTSVTVSS
VL: DVLMTQTPLSLPVSLGDQASISCRSSQNIVHSNGKTYLEWYLQRPGQSPKLLIYKVSNRFSGVPDRFSGSGSGTDFTLKISRVEAEDLGVYYCFQGSHVPYTFGGGTKLEIKR
On to B3, for which, in the experiment with mouse IL-13, the binding result is on record as “no binding (tested: 0.1 to 100 ng/ml)”. The figures for the “Average IC50, IL-13-induced TARC production by A-549 cells” value (“Average IC50” for short) (in [4]; in the experiment with human IL-13 wild type [5]; in the experiment with cynomolgus IL-13) were 0.136 nM, 0.0682 nM and 0.34 nM, respectively. Also, the Kd in experiment [6] was 0.0744 nM; with human IL-13 wild type [7], 0.0772 nM. The koff was found to be 6.18e-05 s⁻¹ in experiment [6] and 6.58e-05 s⁻¹ in the experiment with human IL-13 wild type [7]. In addition, the kon in [6] amounted to 831000 M⁻¹ s⁻¹; in the experiment with human IL-13 wild type [7], 852000 M⁻¹ s⁻¹.

B4: 22D10 (antibody, V domains shown)
VH: QVQLQQSGDDLVKPGASVKLSCKASGYTFTSYWINWIKQRPGQGLEWIGHIAPGSGETYDNEMFKDKAKLTVDTSSSTAYIHLSSLSSEDSAVYFCARGSFTFFYAMDYWGQGTSVTVSS
VL: DVLMTQTPLSLPVSLGDQASISCRSSQNIVHSNGKTYLEWYLQRPGQSPKLLIYKVSNRFSGVPDRFSGSGSGTDFTLKISRVEAEDLGVYYCFQGSHVPYTFGGGTKLEIKR
Regarding B4, in the experiment with mouse IL-13, the binding result was “no binding (tested: 0.1 to 100 ng/ml)”. The results for the “Average IC50” value (in [4]; in the experiment with human IL-13 wild type [5]; in the experiment with cynomolgus IL-13) were 0.54 nM, 0.284 nM and 6.11 nM, respectively. The Kd in [6] came to 0.632 nM; with human IL-13 wild type [7], 0.356 nM. For the same molecule, the koff in experiment [6] is 0.000155 s⁻¹; with human IL-13 wild type [7] it was 6.5e-05 s⁻¹. Besides, the kon in experiment [6] is 245000 M⁻¹ s⁻¹; with human IL-13 wild type [7] it was 182000 M⁻¹ s⁻¹.

B5: 5G1.1 (antibody, human IgG1, V domains shown)
VH: EVQLVQSGAEVKKPGASVKVSCKASGYTFTTYGVSWVRQAPGQGLEWIGEIYPGNYNTYYNEKFRGKATMTTDTSTSTAYMELRSLRSDDTAVYYCSRWRTSYFSDYGYFDYWGQGTTVTVSS
VL: DVVMTQSPLSLPVTLGQPASISCRSSQSLVHSHGNTYLHWYQQRPGQSPRLLIYTVSNRFSGVPDRFSGSGSGTDFTLKISRVEAEDVGVYYCSQSTHVPYTFGGGTKVEIKR
notes: Humanized
For B5, the “Potency (IC50), A-549 bioassay” value in experiment [1] turned out to be 0.0741 nM. Further, in the experiment with human IL-13 wild type [2], the “Potency (IC50), A-549 bioassay” value was 0.029 nM. In the experiment with human IL-13 wild type [3], this molecule had a Kd of 0.0272 nM, a koff of 2.14e-05 s⁻¹ and a kon of 786000 M⁻¹ s⁻¹.

B6: 5G1.5 (antibody, human IgG1, V domains shown)
VH: QVQLVQSGAEVKKPGASVKVSCKASGYTFTTYGVSWVRQAPGQGLEWIGEIYPGNYNTYYNEKFRGKATLTADKSTSTAYMELSSLRSEDTAVYYCSRWRTSYFSDYGYFDYWGQGTLVTVSS
VL: DIVMTQSPLSLPVTPGQPASISCRSSQSLVHSHGNTYLHWYLQKPGQSPKLLIYTVSNRFSGVPDRFSGSGSGTDFTLKISRVEAEDVGVYYCSQSTHVPYTFGGGTKVEIK
notes: Humanized; The heavy chain row is printed 'VN 5G1.5'
Regarding B6, the “Potency (IC50), A-549 bioassay” value in experiment [1] was 0.0655 nM. In addition, the “Potency (IC50), A-549 bioassay” value with human IL-13 wild type [2] stood at 0.114 nM. In addition, in the experiment with human IL-13 wild type [3], binding was put at a Kd of 0.022 nM, the koff was 1.91e-05 s⁻¹ and the kon was 869000 M⁻¹ s⁻¹.

B7: 5G1.2 (antibody, human IgG1, V domains shown)
VH: EVQLVQSGAEVKKPGASVKVSCKASGYTFTTYGVSWVRQAPGQGLEWIGEIYPGNYNTYYNEKFRGKATLTADKSTSTAYMELSSLRSDDTAVYFCSRWRTSYFSDYGYFDYWGQGTTVTVSS
VL: DVVMTQSPLSLPVTLGQPASISCRSSQSLVHSHGNTYLHWYQQRPGQSPRLLIYTVSNRFSGVPDRFSGSGSGTDFTLKISRVEAEDVGVYFCSQSTHVPYTFGGGTKVEIKR
notes: Humanized
For the molecule B7, in experiment [1], the “Potency (IC50), A-549 bioassay” value came to 0.0553 nM. The “Potency (IC50), A-549 bioassay” value in the experiment with human IL-13 wild type [2] was determined as 0.0295 nM. In the experiment with human IL-13 wild type [3], the affinity, expressed as Kd, was 0.105 nM; the koff was determined as 8.81e-05 s⁻¹; the kon amounted to 835000 M⁻¹ s⁻¹.

B8: 5D3 (antibody, V domains shown)
VH: QVQLKESGPGLVAPSQSLSITCTVSGFSLTGYNINWVRQPPGKGLEWLGLIWGDGNTAFNSALKSRLSISKDNSKSQVFLKLNSLQTDDTARYYCARDGYYPYAIKYWGQGTSVTVSS
VL: NIVLTQSPASLAVSLGQRATISCRASETVDSYGNSFMHWYQQKPGQPPKLLIYLASNLESGVPARFSGSGSRTDFTLTIDPVEADDAATYYCQQNNEDPRTFGGGTKLEIKR
With B8, the binding result with mouse IL-13 was “no binding (tested: 0.1 to 100 ng/ml)”. Besides, the “Average IC50” value in [4] was determined as 0.29 nM; in the experiment with human IL-13 wild type [5] it was 0.705 nM; with cynomolgus IL-13 it was 0.291 nM. Also, the Kd was determined as 0.387 nM in experiment [6] and 0.296 nM with human IL-13 wild type [7]. Moreover, the koff was 0.000584 s⁻¹ in [6] and 0.000483 s⁻¹ with human IL-13 wild type [7]. The kon in experiment [6] amounted to 1.51e+06 M⁻¹ s⁻¹; with human IL-13 wild type [7], 1.63e+06 M⁻¹ s⁻¹.

B9: 25C8 (antibody, V domains shown)
VH: QVQLQQPGAELVRPGASVQLSCKASGYTFTSSWIHWVNQRPGQGLEWIGMIHPSDSETRLNQKFKDKATLTVDKSSSTAYMQLSSPTSEDSAVYYCASTATDFDYWGQGTTLTVSS
VL: DVVLTQTPLSLPVNIGDQASISCKSTKSLLNSDGFTYLDWYLQKPGQSPQLLIYLVSNRFSGAPDRFSGSGSGTDFTLKISRVEAEDLGVYYCFQHNYLPLTFGAGTNLELKR
Consider B9, for which the binding result with mouse IL-13 was “no binding (tested: 0.1 to 100 ng/ml)”. Besides, the “Average IC50” value came to 0.26 nM in experiment [4], 0.23 nM in the experiment with human IL-13 wild type [5] and 0.188 nM in the experiment with cynomolgus IL-13. In addition, the Kd in experiment [6] turned out to be 0.0631 nM; with human IL-13 wild type [7], 0.0754 nM. The koff in experiment [6] was 8.45e-06 s⁻¹; with human IL-13 wild type [7], 2.6e-05 s⁻¹. Also, the kon in [6] worked out at 134000 M⁻¹ s⁻¹; with human IL-13 wild type [7], 345000 M⁻¹ s⁻¹.
